Where a chain is given by its changes, count along the chain named. Names may count otherwise.
B1: ECB109 (designed binder, not shown: small tags and cut ends)
chain: MLPAPKNLVVSEVTEDSARLSWDDPHAFYESFLIQYQESEKVGEAIVLTVPGSERSYDLTGLKPGTEYTVSIYGVHNVYKDTNIRGLPLSAIFTTAPAPAPAPAPLPAPKNLVVSRVTEDSARLSWTAPDAAFDSFWIRYFEFLGSGEAIVLTVPGSERSYDLTGLKPGTEYVVNILSVKGGSISPPLSAIFTT
B2: ECB95 (designed binder, not shown: small tags and cut ends)
chain: B1 chain with H26W, L144V, S178G
B3: ECB106 (designed binder, not shown: small tags and cut ends)
chain: B1 chain with S178G, S183K
B4: ECB15 (designed binder, not shown: small tags and cut ends)
chain: B1 chain with H26W, I84M, L177M, S178G, S183K
B5: ECB96 (designed binder, not shown: small tags and cut ends)
chain: B1 chain with H26W, L144V, G145S, S146K, E148D, S178G
B6: ECB94 (designed binder, not shown: small tags and cut ends)
chain: B1 chain with H26W, S178G, S183K
B7: ECB108 (designed binder, not shown: small tags and cut ends)
chain: B1 chain with L144V, G145S, S146K, E148D, S178G
B8: ECB107 (designed binder, not shown: small tags and cut ends)
chain: B1 chain with L144V, S178G
B9: A3 K78S (designed binder)
chain: LPAPKNLVVSEVTEDSARLSWDDPWAFYESFLIQYQESEKVGEAIVLTVPGSERSYDLTGLKPGTEYTVSIYGVHNVYKDTNMRGLPLSAIFTTAPAPAPAPAPLPAPKNLVVSRVTEDSARLSWTAPDAAFDSFWIRYFEFLGSGEAIVLTVPGSERSYDLTGLKPGTEYVVNIMGVKGGSISPPLSAIFTT
B10: A3 N70S (designed binder)
chain: B9 chain with N174S, S182K
B11: A3 L39S (designed binder)
chain: B9 chain with L143S, S182K
B12: A3 G40S (designed binder)
chain: B9 chain with G144S, S182K
B13: A3 F36S (designed binder)
chain: B9 chain with F140S, S182K
B14: A3 F38S (designed binder)
chain: B9 chain with F142S, S182K
B15: A3 V68S (designed binder)
chain: B9 chain with V172S, S182K
B16: A3 P81S (designed binder)
chain: B9 chain with S182K, P185S
B17: A3 W32S (designed binder)
chain: B9 chain with W136S, S182K
B18: P54CR4-31 (designed binder)
chain: LPAPKNLVVSEVTEDSLRLSWTAPDAAFDSFLIQYQESEKVGEAINLTVPGSERSYDLTGLKPGTEYTVSIYGVLGSYVFEHDVMLPLSAEFTT
notes: not shown: C-terminal poly-histidine tag
B19: P114AR5P74-A5 (designed binder, not shown: small tags and cut ends)
chain: LPAPKNLVVSRVTEDSARLSWTAPDAAFDSFWIRYDEVVVGGEAIVLTVPGSERSYDLTGLKPGTEYYVNILGVKGGSISVPLSAIFTT
B20: P114AR7P95-H8 (designed binder, not shown: small tags and cut ends)
chain: B19 chain with D36F, V38F, V40S, G41K, Y68V, L72M, V81P
B21: P114AR7P92-H5 (designed binder, not shown: small tags and cut ends)
chain: B19 chain with D36L, V38F, V39L, V40L, Y68V, N70Q, L72M, S78T, I79V, V81P
B22: P114AR7P92-G8 (designed binder, not shown: small tags and cut ends)
chain: B19 chain with W32V, D36F, V38F, V39L, V40G, G41S, Y68V, N70Q, S78Y, V81I
B23: P114AR5P75-E9 (designed binder, not shown: small tags and cut ends)
chain: B19 chain with W32F, V38F, V39L, V40R, G41S, Y68W, N70T, S78L, I79V, V81T
B24: P114AR7P95-D4 (designed binder, not shown: small tags and cut ends)
chain: B19 chain with D36F, V38F, V39L, V40G, G41S, Y68V, N70Q, S78Y, V81I
B25: P114AR7P95-F10 (designed binder, not shown: small tags and cut ends)
chain: B19 chain with D36F, V38F, V39T, V40T, G41A, Y68V, L72M, V81P
B26: P114AR7P94-E5 (designed binder, not shown: small tags and cut ends)
chain: B19 chain with D36F, V38F, V39L, V40G, G41S, Y68A, L72M, S78R, I79V
B27: P114AR7P94-A3 (designed binder, not shown: small tags and cut ends)
chain: B19 chain with D36F, V38F, V39L, V40G, G41S, Y68V, L72M, S78K, V81P
B28: P114AR7P95-G7 (designed binder, not shown: small tags and cut ends)
chain: B19 chain with D36F, V38L, V39L, V40S, G41T, Y68V, L72M, V81P
B29: P114AR7P92-F6 (designed binder, not shown: small tags and cut ends)
chain: B19 chain with D36F, V38F, V39L, V40G, G41S, Y68V, S78G, I79L
B30: P114AR7P93-H9 (designed binder, not shown: small tags and cut ends)
chain: B19 chain with D36F, V38F, V39L, V40G, G41S, Y68V, N70Q, L72I, S78H, V81L
B31: P114AR7P93-G8 (designed binder, not shown: small tags and cut ends)
chain: LPAPKNLVVSRVTEDSARLSWTAPDAAFDSFWIRYFEFLGSGEAIVLTVPGSERSYDLTDLKPGTEYGVTINGVKGGRVSTPLSAIFTT
B32: Bispecific Centyrin (83-H9) (designed binder)
chain: MLPAPKNLVVSEVTEDSARLSWDDPWAFYESFLIQYQESEKVGEAIVLTVPGSERSYDLTGLKPGTEYTVSIYGVHNVYKDTNMRGLPLSAIFTTGGGGSGGGGSGGGGSGGGGSMLPAPKNLVVSRVTEDSARLSWTAPDAAFDSFWIRYFEFLGSGEAIVLTVPGSERSYDLTGLKPGTEYVVQIIGVKGGHISLPLSAIFTT

molecular target: recombinant human c-Met Fc chimera (human) (UniProt P08581); experiment: SPR (ProteOn), protocol of Example 3

Kd [nM] | Binder
2.1 | B1
6.2 | B2
5.1 | B3
2.6 | B4
22.1 | B5
4.3 | B6
25.5 | B7
9 | B8

molecular target: recombinant human c-Met Fc chimera (human) (UniProt P08581); experiment: SPR, serine scan in the context of ECB15

Fold Change of KD against parent [fold] | Kd [nM] | koff [s⁻¹] | kon [M⁻¹ s⁻¹] | Binder
0.75 | 0.3 | 0.00015 | 440000 | B9
14.8 | 5.9 | 0.00249 | 425000 | B10
6.75 | 2.7 | 0.00127 | 475000 | B11
4.25 | 1.7 | 0.00032 | 185000 | B12
68 | 27.2 | 0.00512 | 188000 | B13
1790 | 717 | 0.0323 | 45100 | B14
9 | 3.6 | 0.0012 | 329000 | B15
4.25 | 1.7 | 0.000536 | 321000 | B16
74.5 | 29.8 | 0.0086 | 289000 | B17

molecular target: T1, human EGFR (epidermal growth factor receptor) on cells (human, UniProt P00533 25-1210); experiment: A431 cell binding, anti-His-Alexa488
T1 construct: Endogenous EGFR of human tumor cell lines; also called HER-1; Erb-B1

EC50 [nM] | Binder
> 20000 | B18

molecular target: recombinant human c-Met Fc chimera (human) (UniProt P08581); experiment: SPR (ProteOn), c-Met-Fc captured by anti-human Fc

Kd [nM] | Binder
10.1 | B19
3.7 | B20
11.6 | B21
1 | B22
45.8 | B23
0.4 | B24
4.2 | B25
4.2 | B26
0.4 | B27
20 | B28
3.1 | B29
3.3 | B30
6.9 | B31

molecular target: human c-Met (hepatocyte growth factor receptor) on cells (human, UniProt P08581 25-1390); experiment: cell-based or functional assay

IC50, inhibition of HGF-stimulated c-Met phosphorylation (relative pc-Met, RCLU) in H596 cells, +5 ng/mL HGF [+5ng/mL HGF), IC50 table] [nM] | Binder
80.8 | B30
0.0789 | B32

molecular target: recombinant human c-Met Fc chimera (human) (UniProt P08581); experiment: HGF competition (biotinylated HGF on coated c-Met-Fc)

IC50 [nM] | Binder
5.2 | B19
1.6 | B22
51.9 | B23
1.4 | B25
0.7 | B26
0.2 | B27
2.2 | B29
2.9 | B30
1 | B31

Reference: patent US20140155325A1 (Janssen / Centocor, published 2014)
